What all share (assay): ELISA, antibody coated, OX40-ECD.His mutant supernatant; relative to silent alanine substitutions;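 further: captured OX40 mutant protein detected with HRP-labelled anti-His antibody, absorbance read-out, scaled to the mean signal of control mutants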
Background: ELISA stands for enzyme-linked immunosorbent assay.

The target of one experiment is T1, human OX40-ECD.His S118A (human, UniProt P43489 29-214).
T1 construct: extracellular domain; not shown: C-terminal His-tag
T1 sequence (looked up): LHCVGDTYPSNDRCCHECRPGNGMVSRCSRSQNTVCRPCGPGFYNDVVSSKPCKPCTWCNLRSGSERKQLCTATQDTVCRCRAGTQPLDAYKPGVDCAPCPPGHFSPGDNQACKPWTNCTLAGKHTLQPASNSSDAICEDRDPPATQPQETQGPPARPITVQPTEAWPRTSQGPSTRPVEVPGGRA

The target of the next experiment is T2, human OX40-ECD.His P129A (human, UniProt P43489 29-214).
T2 construct: extracellular domain; not shown: C-terminal His-tag
T2 sequence (looked up): T1 sequence (looked up) with A90S, P101A

The target of another experiment is T3, human OX40-ECD.His Q60A (human, UniProt P43489 29-214).
T3 construct: extracellular domain; not shown: C-terminal His-tag
T3 sequence (looked up): T1 sequence (looked up) with Q32A, A90S

For a further experiment, the target named is T4, human OX40-ECD.His G92A (human, UniProt P43489 29-214).
T4 construct: extracellular domain; not shown: C-terminal His-tag
T4 sequence (looked up): T1 sequence (looked up) with G64A, A90S

Another experiment concerns the target T5, human OX40-ECD.His A140G (human, UniProt P43489 29-214).
T5 construct: extracellular domain; not shown: C-terminal His-tag
T5 sequence (looked up): T1 sequence (looked up) with A90S, A112G

A further experiment has as its target T6, human OX40-ECD.His D40A (human, UniProt P43489 29-214).
T6 construct: extracellular domain; not shown: C-terminal His-tag
T6 sequence (looked up): T1 sequence (looked up) with D12A, A90S

The target in another experiment is T7, human OX40-ECD.His R95A (human, UniProt P43489 29-214).
T7 construct: extracellular domain; not shown: C-terminal His-tag
T7 sequence (looked up): T1 sequence (looked up) with R67A, A90S

A further experiment addresses T8, human OX40-ECD.His V63A (human, UniProt P43489 29-214).
T8 construct: extracellular domain; not shown: C-terminal His-tag
T8 sequence (looked up): T1 sequence (looked up) with V35A, A90S

The target in another experiment is T9, human OX40-ECD.His E45A (human, UniProt P43489 29-214).
T9 construct: extracellular domain; not shown: C-terminal His-tag
T9 sequence (looked up): T1 sequence (looked up) with E17A, A90S

In another experiment the target is T10, human OX40-ECD.His S159A (human, UniProt P43489 29-214).
T10 construct: extracellular domain; not shown: C-terminal His-tag
T10 sequence (looked up): T1 sequence (looked up) with A90S, S131A

Numbering of substitutions follows the chain as printed.

Procedure for human OX40-ECD.His A140G: (§1) After interacting with the supernatant that contains quantified OX40 mutants or human OX40-ECD.His protein, HRP conjugated anti-His antibody (1:5000, GenScript-A00612, CHN) was added as detection antibody. Absorbance was normalized according to the average of control mutants.
Procedure for human OX40-ECD.His D40A: as §1
Procedure for human OX40-ECD.His E45A: as §1
Procedure for human OX40-ECD.His G92A: as §1
Procedure for human OX40-ECD.His P129A: as §1
Procedure for human OX40-ECD.His Q60A: as §1
Procedure for human OX40-ECD.His R95A: as §1
Procedure for human OX40-ECD.His S118A: as §1
Procedure for human OX40-ECD.His S159A: as §1
Procedure for human OX40-ECD.His V63A: as §1

B1: 1.134.9-u1-IgG1L (antibody, V domains shown)
VH: QVQLQESGPGLVKPSGTLSLTCAVSGGSISSYNWWSWVRQPPGKGLEWIGEIYHGGNTNYNPSLKSRVTMSVDNSKNQFSLKLSSVTAADTAVYYCARAPGDWGGSPYFDFWGQGTLVTVSS
VL: SSELTQDPAVSVALGQTVRITCQGDNLRTYYASWYQQKPGQAPILLIYGRNKRPSGIPDRFSGSSSGNTASLTITGAQAEDEAAYYCNSRDSSGNPVVFGGGTKLTVL
notes: fully human IgG1, lambda
Regarding B1, the “Fold Change” value came out at 0.969 with human OX40-ECD.His S118A; 0.907 in the experiment with human OX40-ECD.His P129A; 0.971 in the experiment with human OX40-ECD.His Q60A; 0.233 with human OX40-ECD.His G92A; 0.969 with human OX40-ECD.His A140G; 0.994 in the experiment with human OX40-ECD.His D40A. The “Fold Change” value turned out to be 0.996 with human OX40-ECD.His R95A, 0.886 with human OX40-ECD.His V63A, 1.02 with human OX40-ECD.His E45A and 0.458 with human OX40-ECD.His S159A.

Values taken from patent publication US20210171647A1 (WUXI BIOLOGICS SHANGHAI, published 2021).
